# Measurements: patent US20170275357A1 (Bristol-Myers Squibb, published 2017)
# Like-named read-outs stand apart in the source and are kept apart here.
# T1: wild-type IL-23 (His-tagged p19 / non-tagged p40) (human, UniProt P29460 23-328)
# T1 construct: co-expressed with p40 in HEK293-6E; also called WT; wt human IL-23
# T1 sequence 1: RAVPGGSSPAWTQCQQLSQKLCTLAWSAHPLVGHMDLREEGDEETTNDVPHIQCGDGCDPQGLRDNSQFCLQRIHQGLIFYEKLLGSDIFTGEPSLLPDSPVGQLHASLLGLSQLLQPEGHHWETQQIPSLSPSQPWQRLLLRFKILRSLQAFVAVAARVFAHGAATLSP
# T1 sequence 2: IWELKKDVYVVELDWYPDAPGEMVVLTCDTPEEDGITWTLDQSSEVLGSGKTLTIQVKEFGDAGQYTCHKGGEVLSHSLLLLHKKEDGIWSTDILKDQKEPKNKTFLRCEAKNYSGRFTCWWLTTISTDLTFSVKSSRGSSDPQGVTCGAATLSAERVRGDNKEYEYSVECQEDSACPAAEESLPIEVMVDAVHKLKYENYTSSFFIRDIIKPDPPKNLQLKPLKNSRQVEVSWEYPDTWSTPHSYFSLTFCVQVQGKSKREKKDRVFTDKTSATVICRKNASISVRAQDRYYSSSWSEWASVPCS
# T2: human IL-17F homodimer (human, UniProt Q96PD4 31-163)
# T2 sequence: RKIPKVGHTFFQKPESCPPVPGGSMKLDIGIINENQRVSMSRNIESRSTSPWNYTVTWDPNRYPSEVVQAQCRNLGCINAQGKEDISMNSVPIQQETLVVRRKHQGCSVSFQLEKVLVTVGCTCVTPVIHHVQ
# B1: hIL-23R-Fc (Fc fusion, human, UniProt Q5VWK5 24-353, looked up)
# chain: GITNINCSGHIWVEPATIFKMGMNISIYCQAAIKNCQPRKLHFYKNGIKERFQITRINKTTARLWYKNFLEPHASMYCTAECPKHFQETLICGKDISSGYPPDIPDEVTCVIYEYSGNMTCTWNAGKLTYIDTKYVVHVKSLETEEEQQYLTSSYINISTDSLQGGKKYLVWVQAANALGMEESKQLQIHLDDIVIPSAAVISRAETINATVPKTIIYWDSQTTIEKVSCEMRYKATTNQTWNVKEFDTNFTYVQQSEFYLEPNIKYVFQVRCQETGKRYWQPWSSLFFHKTPETVPQVTSKAFQHDTWNSGLTVASISTGHLTSDNRGD
# notes: Bought from R&D Systems; also called human IL-23 receptor; p19 specific IL-23 receptor; not shown: Fc part of the commercial fusion (R&D Systems) not described
# B2: humanized anti-human IL-17A/F antibody 339-134 mAb IgG1.1 (antibody, V domains shown)
# VH: QVQLVQSGAEVKKPGASVKVSCKASGYTFNEYTMHWVKQAPGQRLEWMGGINPNSGGVSYNQNFKGKATLTVDTSASTAYMELSSLRSEDTAVYYCARGGDGYYTNYFDIDYWGQGTTVTVSS
# VL: DIQMTQSPSSLSASVGDRVTITCSASSSVNYMHWYQQKPGKVPKLLIYDTSKLASGVPSRFSGSGSGTDFTLTISSLQPEDVATYYCQQWNSHPLTFGQGTKLEIKR
# notes: IgG1.1/kappa; also called MVC978/MVC717; humanized parent
# B3: Fab derived from the IL-17 arms of biAb3 (Lead Fab A3185F) (Fab, V domains shown)
# VH: B2 VH
# VL: not shown
# notes: Expressed periplasmically in E. coli, purified by IMAC (tag not described); also called humanized lead Fab; biAb Fab
# What was measured:
# [1] = molecular target: T1, wild-type IL-23 (His-tagged p19 / …); test: SPR (Biacore T100): hIL-23R-Fc captured on protein A, IL-23 (purified wild-type, and wild-type expression supernatant diluted 1:5) injected 3 min; response 10 s before the end of the injection, reference subtracted
# human IL-17A homodimer [2] = molecular target: T3, human IL-17A homodimer (human, UniProt Q16552 24-155); test: cell-based or functional assay
# [3] = molecular target: T4, human IL-17A/F heterodimer (human, UniProt Q16552 24-155; Q96PD4 31-163); test: cell-based or functional assay
# human IL-17F homodimer [4] = molecular target: T2, human IL-17F homodimer; test: cell-based or functional assay
# human IL-17A homodimer [5] = molecular target: T3, human IL-17A homodimer; test: cell-based or functional assay; remark: listed apart in the source
# [6] = molecular target: T4, human IL-17A/F heterodimer; test: cell-based or functional assay; remark: listed apart in the source
# human IL-17F homodimer [7] = molecular target: T2, human IL-17F homodimer; test: cell-based or functional assay; remark: listed apart in the source
# human IL-17A homodimer [8] = molecular target: T3, human IL-17A homodimer; test: cell-based or functional assay; remark: listed apart in the source
# [9] = molecular target: T4, human IL-17A/F heterodimer; test: cell-based or functional assay; remark: listed apart in the source
# human IL-17F homodimer [10] = molecular target: T2, human IL-17F homodimer; test: cell-based or functional assay; remark: listed apart in the source
# human IL-17A homodimer [11] = molecular target: T3, human IL-17A homodimer; test: cell-based or functional assay; remark: listed apart in the source
# [12] = molecular target: T4, human IL-17A/F heterodimer; test: cell-based or functional assay; remark: listed apart in the source
# human IL-17F homodimer [13] = molecular target: T2, human IL-17F homodimer; test: cell-based or functional assay; remark: listed apart in the source
# human IL-17A homodimer [14] = molecular target: T3, human IL-17A homodimer; test: cell-based or functional assay; remark: listed apart in the source
# [15] = molecular target: T4, human IL-17A/F heterodimer; test: cell-based or functional assay; remark: listed apart in the source
# human IL-17F homodimer [16] = molecular target: T2, human IL-17F homodimer; test: cell-based or functional assay; remark: listed apart in the source
# human IL-17A homodimer [17] = molecular target: T3, human IL-17A homodimer; test: cell-based or functional assay; remark: listed apart in the source
# [18] = molecular target: T4, human IL-17A/F heterodimer; test: cell-based or functional assay; remark: listed apart in the source
# human IL-17F homodimer [19] = molecular target: T2, human IL-17F homodimer; test: cell-based or functional assay; remark: listed apart in the source
# human IL-17A homodimer [20] = molecular target: T3, human IL-17A homodimer; test: SPR Biacore T100, captured antibody, bivalent analyte model
# [21] = molecular target: T4, human IL-17A/F heterodimer; test: as above
# human IL-17F homodimer [22] = molecular target: T2, human IL-17F homodimer; test: as above
# human IL-17A homodimer [23] = molecular target: T3, human IL-17A homodimer; test: as above; remark: listed apart in the source
# [24] = molecular target: T4, human IL-17A/F heterodimer; test: as above; remark: listed apart in the source
# human IL-17F homodimer [25] = molecular target: T2, human IL-17F homodimer; test: as above; remark: listed apart in the source
# human IL-17F homodimer [26] = molecular target: T2, human IL-17F homodimer; test: X-ray co-crystal structure
binder,measurement,setting,value
B1,binding result,[1],binds
B2,"IC50, NIH/3T3/KZ170 NF-kB luciferase reporter",human IL-17A homodimer [2],1.4 nM
same,"IC50, NIH/3T3/KZ170 NF-kB luciferase reporter",[3],0.26 nM
same,"IC50, NIH/3T3/KZ170 NF-kB luciferase reporter",human IL-17F homodimer [4],0.24 nM
same,"IC50, NIH/3T3/KZ170 NF-kB luciferase reporter",human IL-17A homodimer [5],1.3 nM
same,"IC50, NIH/3T3/KZ170 NF-kB luciferase reporter",[6],0.27 nM
same,"IC50, NIH/3T3/KZ170 NF-kB luciferase reporter",human IL-17F homodimer [7],0.24 nM
same,"IC50, G-CSF induction in primary human SAEC",human IL-17A homodimer [8],0.5 nM
same,"IC50, IL-6 induction in primary human fibroblasts (HFFF)",human IL-17A homodimer [8],0.9 nM
same,"IC50, G-CSF induction in primary human SAEC",[9],1.3 nM
same,"IC50, IL-6 induction in primary human fibroblasts (HFFF)",[9],13 nM
same,"IC50, G-CSF induction in primary human SAEC",human IL-17F homodimer [10],1.1 nM
same,"IC50, IL-6 induction in primary human fibroblasts (HFFF)",human IL-17F homodimer [10],15 nM
same,"IC50, NIH/3T3/KZ170 NF-kB luciferase reporter",human IL-17A homodimer [11],3 nM
same,"IC50, NIH/3T3/KZ170 NF-kB luciferase reporter",[12],0.9 nM
same,"IC50, NIH/3T3/KZ170 NF-kB luciferase reporter",human IL-17F homodimer [13],0.4 nM
same,"IC50, NIH/3T3/KZ170 NF-kB luciferase reporter",human IL-17A homodimer [14],1.2 nM
same,"IC50, NIH/3T3/KZ170 NF-kB luciferase reporter",[15],0.23 nM
same,"IC50, NIH/3T3/KZ170 NF-kB luciferase reporter",human IL-17F homodimer [16],0.28 nM
same,"IC50, IL-6 induction in primary human fibroblasts (HFFF)",human IL-17A homodimer [17],2 nM
same,"IC50, IL-6 induction in primary human fibroblasts (HFFF)",[18],22 nM
same,"IC50, IL-6 induction in primary human fibroblasts (HFFF)",human IL-17F homodimer [19],23 nM
same,Kd,human IL-17A homodimer [20],1 nM
same,koff,human IL-17A homodimer [20],0.003 s⁻¹
same,kon,human IL-17A homodimer [20],2e+06 M⁻¹ s⁻¹
same,Kd,[21],0.2 nM
same,koff,[21],0.0005 s⁻¹
same,kon,[21],2e+06 M⁻¹ s⁻¹
same,Kd,human IL-17F homodimer [22],0.1 nM
same,koff,human IL-17F homodimer [22],0.0002 s⁻¹
same,kon,human IL-17F homodimer [22],2e+06 M⁻¹ s⁻¹
same,Kd,human IL-17A homodimer [23],1 nM
same,koff,human IL-17A homodimer [23],0.003 s⁻¹
same,kon,human IL-17A homodimer [23],2e+06 M⁻¹ s⁻¹
same,Kd,[24],0.2 nM
same,koff,[24],0.0005 s⁻¹
same,kon,[24],2e+06 M⁻¹ s⁻¹
same,Kd,human IL-17F homodimer [25],0.1 nM
same,koff,human IL-17F homodimer [25],0.0002 s⁻¹
same,kon,human IL-17F homodimer [25],2e+06 M⁻¹ s⁻¹
B3,binding result,human IL-17F homodimer [26],binds
